Measured values published in patent EP4707300A1 (Beijing Wisdomab Biotechnology Co., Ltd, dated 2026).

T1: cynomolgus monkey IL-15 (mfIL-15+mfIL-15Rα complex), tag on IL-15Rα not stated (cynomolgus monkey (Macaca fascicularis), UniProt P40221 49-162; Q13261 31-128)
T1 construct: also called monkey IL-15+IL-15Rα superagonist
T1 chain 1: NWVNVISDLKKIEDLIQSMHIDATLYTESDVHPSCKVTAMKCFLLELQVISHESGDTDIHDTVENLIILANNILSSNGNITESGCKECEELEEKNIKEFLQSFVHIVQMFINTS
T1 chain 2: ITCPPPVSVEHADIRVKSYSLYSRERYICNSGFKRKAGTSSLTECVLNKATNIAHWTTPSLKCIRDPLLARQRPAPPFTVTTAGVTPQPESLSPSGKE

B1: anti-human IL-15 monoclonal antibody R1A3 (antibody, V domains shown)
VH: EVQLVQSGAEVKKPGESLKISCKVSGYFFTTYWIGWVRQMPGKGLEYMGIIYPGDSDTRYSPSFQGQVTISADKSISTAYLQWSSLKASDTAMYYCARGGHWNAFDFWGQGTLVTVSS
VL: EIVLTQSPGTLSLSPGERATLSCRASQSVSSSYLAWYQQKPGQAPRLLIYGASRRATGIPDRFSGSGSGTDFTLTISRLEPEDFAVYYCQQFDASQTFGQGTKLEISR
notes: Found from a fully human Fab phage library
B2: anti-human IL-15 monoclonal antibody AMG714 (antibody, V domains shown)
VH: EVQLVQSGAEVKKPGESLKISCKVSGYFFTTYWIGWVRQMPGKGLEYMGIIYPGDSDTRYSPSFQGQVTISADKSISTAYLQWSSLKASDTAMYYCARGGNWNCFDYWGQGTLVTVSS
VL: EIVLTQSPGTLSLSPGERATLSCRASQSVSSSYLAWYQQKPGQAPRLLIYGASRRATGIPDRFSGSGSGTDFTLTISRLEPEDFAVYYCQRYGSSHTFGQGTKLEISR
B3: mouse anti-human IL-15 monoclonal antibody R6E11 (antibody, V domains shown)
VH: EVKLKESGPSLVQPSQSLSITCTVSGFSLTTYAVHWVRQSPGKGLEWLGVIWGAGSTDYNAAFMSRLSITKDNSKSQVFFKMNSLQADDTAIYFCAKNGAYYVMDYWGQGTSVTVSS
VL: EIVLTQSPAIMSASPGEKVTITCSASSSVSYMHWFQQRPGTSPKLWIYSTSNLASGVPARFSGSGSGTSYSLTISRMEAEDAATYYCQQRSSYPLTFGAGTKLEIK
notes: Mouse variable regions from a mouse immune phage library
B4: anti-human IL-15 monoclonal antibody R26H10 (antibody, V domains shown)
VH: QVTLKESGPVLVKPTETLTLTCTVSGFSLTTYAVHWIRQPPGKALEWLGVIWGAGSTDYNPSFMSRLTISKDTSKSQVVLTMTNMDPVDTATYYCAKNAAYYVMDYWGQGTTVTVSS
VL: EIVLTQSPGTLSLSPGERATLSCRASQSVIYSYLAWYQQKPGQAPRLLIYAASKLASGIPDRFSGSGSGTDFTLTISRLEPEDFAVYYCQQRASYPLTFGQGTKVEIK
notes: Humanized mutant of R6E11 with a fully human light chain; captured by anti-human IgG (Fc) in SPR and detected with anti-human IgG in ELISA
B5: anti-human IL-15 monoclonal antibody R4G4VH+R22F11VK (antibody, V domains shown)
VH: EVQLVQSGAEVKKPGESLKISCKVSGYFFTTYWIGWVRQMPGKGLEYMGIIYPGDSDTRYSPSFQGQVTISADKSISTAYLQWSSLKASDTAMYYCARGGHWNAFDIWGQGTLVTVSS
VL: EIVLTQSPGTLSLSPGERATLSCRASQSVIGSYLAWYQQKPGQAPRLLIYSASKLASGIPDRFSGSGSGTDFTLTISRLEPEDFAVYYCQQHYSTPGTFGQGTKVEIK
notes: Mutant of R1A3; it was captured by anti-human IgG (Fc) in SPR and detected with anti-human IgG in ELISA, so a human Fc is implied; also called R4G4VH+R22FVK
B6: anti-human IL-15 monoclonal antibody R2H2VH+R22F11VK (antibody, V domains shown)
VH: EVQLVQSGAEVKKPGESLKISCKVSGYFFTTYWIGWVRQMPGKGLEYMGIIYPGDSDTRYSPSFQGQVTISADKSISTAYLQWSSLKASDTAMYYCARGGHWNSFDTWGQGTLVTVSS
VL: EIVLTQSPGTLSLSPGERATLSCRASQSVIGSYLAWYQQKPGQAPRLLIYSASKLASGIPDRFSGSGSGTDFTLTISRLEPEDFAVYYCQQHYSTPGTFGQGTKVEIK
notes: Mutant of R1A3; it was captured by anti-human IgG (Fc) in SPR and detected with anti-human IgG in ELISA, so a human Fc is implied; also called R2H2VH+R22FVK

Legend:
[1] = target: human IL-15 (hIL-15+hIL-15Rα complex), tag on IL-15Rα not stated (human (homo sapiens)) (UniProt P40933); assay: SPR (Biacore T200), as in Example 2.2
[2] = target: human IL-15 (hIL-15+hIL-15Rα complex), tag on IL-15Rα not stated (human (homo sapiens)) (UniProt P40933); assay: SPR (Biacore T200), antibody captured by anti-human IgG Fc, complex as analyte, 1:1 model
[3] = target: human IL-15 (hIL-15+hIL-15Rα complex), tag on IL-15Rα not stated (human (homo sapiens)) (UniProt P40933); assay: cell-based or functional assay
[4] = target: human IL-15 (hIL-15+hIL-15Rα-His complex) (human (homo sapiens)) (UniProt P40933); assay: cell-based or functional assay
[5] = target: cynomolgus monkey IL-15 (mfIL-15+mfIL-15Rα complex), tag on IL-15Rα not stated (cynomolgus monkey (Macaca fascicularis)) (UniProt P40221); assay: SPR (Biacore T200), as in Example 2.2
[6] = target: human IL-15 (hIL-15+hIL-15Rα complex), tag on IL-15Rα not stated (human (homo sapiens)) (UniProt P40933); assay: SPR (Biacore T200), as in Example 2.2; remark: listed apart in the source
[7] = target: T2, mouse IL-15 (mIL-15+mIL-15Rα-mFc1 complex) (mouse (Mus musculus), UniProt P48346 49-162); assay: ELISA, complex coated at 1 µg/mL, anti-human IgG-HRP detection
T2 construct: also called mIL-15+mIL-15Rα-mFe1 complex
T2 sequence (P48346 49-162 limits assumed, chain 1 of 2): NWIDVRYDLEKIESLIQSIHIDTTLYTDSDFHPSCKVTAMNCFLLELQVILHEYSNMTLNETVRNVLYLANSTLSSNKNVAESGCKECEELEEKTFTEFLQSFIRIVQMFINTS
T2 sequence (chain, as listed by the source limits assumed, chain 2 of 2): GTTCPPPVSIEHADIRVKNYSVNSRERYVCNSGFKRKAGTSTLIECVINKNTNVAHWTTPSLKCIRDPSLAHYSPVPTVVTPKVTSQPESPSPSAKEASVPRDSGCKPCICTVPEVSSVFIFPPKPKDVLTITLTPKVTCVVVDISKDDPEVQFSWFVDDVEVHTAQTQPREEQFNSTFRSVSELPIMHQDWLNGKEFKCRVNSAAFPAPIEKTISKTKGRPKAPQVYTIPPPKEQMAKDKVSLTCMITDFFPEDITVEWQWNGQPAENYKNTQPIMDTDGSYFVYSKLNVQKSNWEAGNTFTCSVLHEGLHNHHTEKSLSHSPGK

[8] = target: T1, cynomolgus monkey IL-15 …; assay: SPR (Biacore T200), as in Example 2.2
[9] = target: T3, human IL-15 (hIL-15+hIL-15Rα complex), tag on IL-15Rα not stated (human (homo sapiens), UniProt P40933 49-162; Q13261 31-128); assay: cell-based or functional assay
[10] = target: T3, human IL-15 (hIL-15+hIL-15Rα complex), …; assay: SPR (Biacore T200), antibody captured by anti-human IgG Fc, complex as analyte, 1:1 model
[11] = target: T3, human IL-15 (hIL-15+hIL-15Rα complex), …; assay: SPR (Biacore T200), as in Example 2.2
[12] = target: T3, human IL-15 (hIL-15+hIL-15Rα complex), …; assay: SPR (Biacore T200), as in Example 2.2; remark: listed apart in the source
[13] = target: human IL-15 (hIL-15+hIL-15Rα-His complex) (human (homo sapiens), UniProt P40933 49-162; Q13261 31-128); assay: cell-based or functional assay
human IL-15 (hIL-15+hIL-15Rα-His complex), sequence (P40933 49-162 limits assumed, chain 1 of 2): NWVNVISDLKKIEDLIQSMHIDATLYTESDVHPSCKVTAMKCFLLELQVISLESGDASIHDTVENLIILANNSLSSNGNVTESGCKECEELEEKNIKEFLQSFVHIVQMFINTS
human IL-15 (hIL-15+hIL-15Rα-His complex), sequence (Q13261 other isoform, or with tags, fused parts or gaps limits assumed, chain 2 of 2): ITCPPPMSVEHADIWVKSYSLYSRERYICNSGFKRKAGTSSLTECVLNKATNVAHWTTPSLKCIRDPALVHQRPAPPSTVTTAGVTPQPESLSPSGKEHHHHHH

[14] = target: T3, human IL-15 (hIL-15+hIL-15Rα complex), …; assay: SPR (Biacore T200), as in Example 2.2; remark: listed apart in the source
[15] = target: T3, human IL-15 (hIL-15+hIL-15Rα complex), …; assay: SPR (Biacore T200), as in Example 2.2; remark: listed apart in the source
[16] = target: cynomolgus monkey IL-15 (mfIL-15+mfIL-15Rα-His complex) (cynomolgus monkey (Macaca fascicularis), UniProt P40221 49-162 (Chlorocebus aethiops entry)); assay: ELISA, complex coated at 1 µg/mL, anti-human IgG-HRP detection

| Molecule | binding result [7] | Kd [8] [pM] | koff [8] [s⁻¹] | kon [8] [M⁻¹ s⁻¹] | IC50(nM), inhibition of IL-15-induced SEAP secretion by HEK-Blue IL-2 cells [9] [nM] | Kd [11] [pM] | koff [11] [s⁻¹] | kon [11] [M⁻¹ s⁻¹] | Kd [12] [pM] | koff [12] [s⁻¹] | kon [12] [M⁻¹ s⁻¹] | IC50(nM), inhibition of IL-15-driven proliferation of NK92 cells (Cell Titer-Glo) [13] [nM] | binding result [16] | further results |
| --- | --- | --- | --- | --- | --- | --- | --- | --- | --- | --- | --- | --- | --- | --- |
| anti-human IL-15 monoclonal antibody CALY-002 | – | – | – | – | – | – | – | – | – | – | – | – | – | Kd [1]: 337 pM; koff [1]: 0.000235 s⁻¹; kon [1]: 697000 M⁻¹ s⁻¹; Kd [2]: 239 pM; koff [2]: 0.000319 s⁻¹; kon [2]: 1.34e+06 M⁻¹ s⁻¹; IC50(nM), inhibition of IL-15-induced SEAP secretion by HEK-Blue IL-2 cells [3]: 3.23 nM; IC50(nM), inhibition of IL-15-driven proliferation of NK92 cells (Cell Titer-Glo) [4]: 0.106 nM; Kd [5]: 148 pM; koff [5]: 0.000188 s⁻¹; kon [5]: 1.27e+06 M⁻¹ s⁻¹; Kd [6]: 201 pM; koff [6]: 0.000207 s⁻¹; kon [6]: 1.03e+06 M⁻¹ s⁻¹ |
| B1 | no binding | 722 | 0.000398 | 552000 | 0.634 | 612 | 0.00038 | 621000 | 352 | 0.000548 | 1.56e+06 | 0.126 | – | Kd [10]: 381 pM; koff [10]: 0.000537 s⁻¹; kon [10]: 1.41e+06 M⁻¹ s⁻¹ |
| B2 | – | 2120 | 0.00124 | 583000 | – | – | – | – | – | – | – | – | – | – |
| B3 | – | – | – | – | – | – | – | – | – | – | – | – | – | Kd [14]: 689 pM; koff [14]: 0.000267 s⁻¹; kon [14]: 387000 M⁻¹ s⁻¹; Kd [15]: 983 pM; koff [15]: 0.000399 s⁻¹; kon [15]: 406000 M⁻¹ s⁻¹ |
| B4 | no binding | 99900 | 0.021 | 210000 | 0.646 | 1130 | 0.000236 | 208000 | – | – | – | 0.133 | binds | Kd [15]: 1220 pM; koff [15]: 0.000308 s⁻¹; kon [15]: 252000 M⁻¹ s⁻¹ |
| B5 | no binding | 448 | 0.000172 | 384000 | 0.312 | 435 | 0.000196 | 450000 | 346 | 0.00029 | 838000 | 0.109 | binds | – |
| B6 | no binding | 463 | 0.000171 | 365000 | 0.397 | 570 | 0.000204 | 357000 | 379 | 0.000299 | 791000 | 0.119 | binds | – |
